{
  "source": "paper PMC10725492",
  "about": "(Translational Psychiatry, 2023)",
  "target": "T1, recombinant APP N-terminal (18-612) fragment (UniProt P05067-4 18-612)",
  "T1 construct": "also called APP18-612; N-terminal APP; source: expressed by KMD Bioscience",
  "T1 sequence (P05067 other isoform, or with tags, fused parts or gaps)": "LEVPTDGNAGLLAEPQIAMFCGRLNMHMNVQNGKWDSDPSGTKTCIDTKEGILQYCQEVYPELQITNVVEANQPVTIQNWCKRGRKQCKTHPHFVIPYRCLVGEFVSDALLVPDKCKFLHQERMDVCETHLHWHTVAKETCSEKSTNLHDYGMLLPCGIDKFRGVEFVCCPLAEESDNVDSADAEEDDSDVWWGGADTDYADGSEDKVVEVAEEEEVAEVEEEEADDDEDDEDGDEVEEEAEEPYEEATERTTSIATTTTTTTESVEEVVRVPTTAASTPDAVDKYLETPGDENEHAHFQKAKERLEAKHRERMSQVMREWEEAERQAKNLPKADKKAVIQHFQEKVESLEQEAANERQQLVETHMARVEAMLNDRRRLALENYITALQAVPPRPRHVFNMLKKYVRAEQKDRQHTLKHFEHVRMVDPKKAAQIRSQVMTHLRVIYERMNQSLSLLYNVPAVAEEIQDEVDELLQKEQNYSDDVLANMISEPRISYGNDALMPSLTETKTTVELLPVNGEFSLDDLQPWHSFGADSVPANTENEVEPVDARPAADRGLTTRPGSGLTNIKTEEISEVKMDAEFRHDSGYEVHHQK",
  "assay": "SPR",
  "details": "both partners purified",
  "note": "No end group written: not given here. *: point of attachment. Palmitoyl = CCCCCCCCCCCCCCCC(=O)*",
  "data": [
    {"binder": "KKKKKKLKVRLASHLRK(Palmitoyl)ELRKRLLRDA (not fully specified)", "note": "[AY51 peptide]", "values": [
      {"measurement": "Kd", "value": 554, "unit": "nM"}
    ]}
  ]
}
